Experimental data: patent US20250277030A1, “ANTI-NAPI2B ANTIBODIES AND METHODS OF USE” (Zymeworks BC Inc., priority 2022, published 2025)

Key:
KLH = assay: NS-ELISA non-specific binding, KLH; conditions: mAb at 100 nM
Procedure: The isoelectric point was measured by capillary isoelectric focusing (cIEF), the propensity for self-aggregation was measured by Affinity-capture self-interaction nanoparticle spectroscopy (AC-SINS) and non-specific binding was measured by NS-ELISA, as described below.
NS-ELISA was used to measure the propensity of the antibodies to bind to a range of biomolecules to emulate the undesirable non-specific interactions to biological matrices in vivo as described below.
NS-ELISA was carried out in Corning®96-well EIA/RIA Easy Wash™ Clear Flat Bottom Polystyrene High Bind Microplate coated overnight at 4° C. with 50 μL of Heparin (Sigma, H3149) diluted with 50 mM sodium carbonate pH 9.6 to a final concentration of 250 μg/mL. The plate was incubated for 2 days at room temperature, wells that were coated with heparin were not covered to allow air dry. […] Reactions were stopped after approximately 10 minutes by adding 100 μL of 1 M HCl to each well, and absorbance was read at 450 nm. Binding scores were calculated as the ratio of the ELISA signal of the antibody (antibody-treated) to the signal of a well containing buffer instead of the primary antibody (untreated). The cutoffs considered for each binding molecule (ssDNA, KLH, insulin, dsDNA and heparin) were internally calculated, based on the average of Zymeworks Inc. produced antibodies and antibodies benchmarks published in the literature.

[1] = target: T1, NaPi2b expressed on HCC-78 cells (Homo sapiens, UniProt O95436); assay: Cellular binding of antibody and ADCs to HCC-78 cells by flow cytometry (Example 14)
T1 construct: endogenous in cells; host or cells: HCC-78
T1 sequence (O95436 1-690): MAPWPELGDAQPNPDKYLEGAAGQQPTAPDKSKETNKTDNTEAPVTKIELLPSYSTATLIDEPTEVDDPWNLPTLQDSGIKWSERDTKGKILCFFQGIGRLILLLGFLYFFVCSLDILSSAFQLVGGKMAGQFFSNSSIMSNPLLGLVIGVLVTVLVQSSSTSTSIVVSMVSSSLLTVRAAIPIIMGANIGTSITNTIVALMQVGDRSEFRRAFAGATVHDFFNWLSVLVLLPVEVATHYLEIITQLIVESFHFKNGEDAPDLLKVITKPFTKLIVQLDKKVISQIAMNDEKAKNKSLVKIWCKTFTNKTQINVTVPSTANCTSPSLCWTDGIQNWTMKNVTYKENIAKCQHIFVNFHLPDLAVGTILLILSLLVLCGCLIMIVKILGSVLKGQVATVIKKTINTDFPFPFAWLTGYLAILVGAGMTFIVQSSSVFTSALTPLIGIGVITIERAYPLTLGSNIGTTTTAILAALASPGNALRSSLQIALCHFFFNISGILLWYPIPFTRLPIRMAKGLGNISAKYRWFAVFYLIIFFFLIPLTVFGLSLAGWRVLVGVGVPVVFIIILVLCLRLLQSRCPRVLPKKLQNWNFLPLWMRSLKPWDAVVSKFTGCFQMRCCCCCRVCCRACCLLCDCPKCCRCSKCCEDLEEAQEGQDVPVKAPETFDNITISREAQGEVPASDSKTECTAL
Procedure: (§1) Briefly, HEK293-6e cells were transfected for ˜24 hours to transiently express human NaPi2b, cynomolgus or mouse NaPi2b, at 1 μg of DNA per 1 million cells. Following transfection, 50,000 cells per well were seeded in V-bottom 96-well plates and incubated with 200 nM of primary antibody for 18-24 hours at 4° C. to prevent internalization. Post-incubation, cells were washed and stained with anti-Human IgG Fc AF647 conjugate (Jackson Immuno Research Labs, West Grove, PA, Cat. No. 109-605-098, Lot. No. 124868) at 4° C. for 1 hour. Following staining and washing, fluorescence was detected by flow cytometry on BD LSRFortessa™ Cell Analyzer (BD Biosciences, Franklin Lake, NJ) with 10,000 minimum events collected per well. The AF647/APC-A GeoMean (fluorescence signal geometric mean, proportional to anti-Human AF647 binding) was calculated for the live singlet cell population for each primary antibody using FlowJo™ v8 software (BD Biosciences, Franklin Lake, NJ). The Bmax and Kd of each primary antibody were calculated using GraphPad Prism Version 9 (GraphPad Software, San Diego, CA)
The ability of ADCs to bind to cells expressing NaPi2b was assessed. ADCs of a representative humanized variant antibody, v29456 (H1L2), were prepared by conjugation to DL2 and DL1 as described in Example 11. Binding to endogenous high NaPi2b-expressing cell lines IGROV-1 and HCC-78 was assessed by flow cytometry according to methods described in Example 5.

human NaPi2b = target: T2, human NaPi2b (Homo sapiens, UniProt O95436); assay: Flow cytometry binding to HEK293-6e cells transfected with human NaPi2b (Example 5); conditions: transfected HEK293-6e cells, 18-24 hours at 4° C.
T2 construct: host or cells: HEK293-6e
T2 sequence (O95436 1-690): T1 sequence (O95436 1-690)
Procedure: The binding cross-reactivity of humanized antibody variant v29456 to human, cynomolgus and mouse NaPi2b was assessed by flow cytometry using HEK293-6e transfected cells.
as §1

NS-ELISA binding score (ratio of signal between antibody-treated and untreated), KLH (KLH): 1.37
Bmax [1]: 21,785
Curve Hill Slope (h) [1]: 1.2
Kd ([1]; apparent Kd): 2.27 nM
Bmax (APC-A GeoMean), Hu NaPi2b (human NaPi2b): 2,538 APC-A GeoMean
Kd (human NaPi2b; highest antibody concentration 200 nM, read-out: Apparent Kd (nM), Hu NaPi2b): 5.2 nM
B1: v29456: humanized anti-NaPi2b IgG1/kappa antibody H1L2; VH SEQ ID NO:24, VL SEQ ID NO:29 (antibody, V domains shown)
VH: QVQLVQSGAEVKKPGASVKVSCKASGFTFTSYNVHWVRQAPGQGLEWMGAISPGNGDLSYAQKFQGRVTMTRDTSTSTVYMELSSLRSEDTAVYYCARGRTGMGAVDYWGQGTLVTVSS
VL: DVQMTQSPSSLSASVGDRVTITCRASQDVYSYLNWYQQKPGKAVKLLIYYTSRLQSGVPSRFSGSGSGTDYTLTISSLQPEDFATYYCQQYNIFPWTFGQGTKLEIK
modifications: v29452, v29456, v29460 VH (H1); v29453, v29454, v29455, v29456 VL (L2)
